Laboratory results reported in patent publication US20030199671A1 (published 2003).
Positions of bridges follow the written chain, without caps; N, C: chain ends.

Assays:
human IgG1 [1] = target: T1, human IgG1 (human, UniProt P01857-1 1-330 = IgG part); assay: fluorescence anisotropy; pH 7.4, 0.01 M Tris-HCl
T1 construct: Calbiochem; human plasma IgG1 in anisotropy studies, myeloma-derived (cat. 400120) in batch/column studies; also called hIgG1
Protocol: (§1) All measurements were performed in 384 well microplates with 20 nM fluorescein-labeled peptide and various concentrations of the IgG isoform in a volume of between 10 and 20 μl using a Tecan Polarion fluorescence polarization plate reader. All binding buffers included 0.01% (v/v) Tween 20 to prevent peptide adsorption to the microplate. The binding mixture was equilibrated for 10 minutes in the microplate at 30° C. prior to performing the measurement.

human IgG4 [2] = target: T2, human IgG4 (human, UniProt P01861-1 1-327 = IgG part); assay: fluorescence anisotropy; pH 7.4, 0.01 M Tris-HCl
T2 construct: Calbiochem; plasma IgG4 in anisotropy studies, myeloma-derived (cat. 400126) in batch/column studies; also called hIgG4
T2 sequence (P01861 other isoform, or with tags, fused parts or gaps): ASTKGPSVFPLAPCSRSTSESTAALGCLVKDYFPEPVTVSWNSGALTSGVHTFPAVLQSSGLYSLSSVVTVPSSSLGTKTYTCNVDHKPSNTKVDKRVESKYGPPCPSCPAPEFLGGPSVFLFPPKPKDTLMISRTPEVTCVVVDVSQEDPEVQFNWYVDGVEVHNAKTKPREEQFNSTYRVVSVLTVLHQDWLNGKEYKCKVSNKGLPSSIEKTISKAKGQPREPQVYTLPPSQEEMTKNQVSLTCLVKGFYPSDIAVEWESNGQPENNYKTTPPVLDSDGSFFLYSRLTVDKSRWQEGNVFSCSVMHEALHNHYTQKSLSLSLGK
Protocol: as §1

human IgG2 [3] = target: T3, human IgG2 (human, UniProt P01859-1 1-326 = IgG part); assay: fluorescence anisotropy; pH 7.4, 0.01 M Tris-HCl
T3 construct: Calbiochem; plasma IgG2 in anisotropy studies, myeloma-derived (cat. 400122) in batch/column studies; also called hIgG2
T3 sequence (P01859 other isoform, or with tags, fused parts or gaps): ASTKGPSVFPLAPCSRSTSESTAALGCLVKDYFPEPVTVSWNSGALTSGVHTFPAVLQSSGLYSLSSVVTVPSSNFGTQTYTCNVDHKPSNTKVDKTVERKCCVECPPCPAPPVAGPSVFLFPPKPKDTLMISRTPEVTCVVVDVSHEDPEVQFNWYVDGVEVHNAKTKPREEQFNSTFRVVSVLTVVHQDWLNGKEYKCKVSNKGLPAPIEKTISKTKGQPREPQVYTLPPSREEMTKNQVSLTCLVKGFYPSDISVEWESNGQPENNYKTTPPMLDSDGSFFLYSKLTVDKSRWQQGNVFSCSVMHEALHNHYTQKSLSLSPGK
Protocol: as §1

human IgG1 [4] = target: T1, human IgG1; assay: fluorescence anisotropy; pH 5.7, 0.15 M NaCl
Protocol: as §1

[5] = target: T4, Human IgG Fc fragment isolated from plasma (human); assay: fluorescence anisotropy; pH 8.0, 0.05 M Tris-HCl, 0.2 M NaCl
T4 construct: domain: Fc fragment; also called human Fc; Fc protein
Protocol: as §1

human IgG1 [6] = target: T1, human IgG1; assay: fluorescence anisotropy; pH 5.7, 0.1 M NaCl
Protocol: as §1

human IgG1 [7] = target: T1, human IgG1; assay: fluorescence anisotropy; pH 5.7, 0.15 M NaCl; remark: listed apart in the source
Protocol: as §1

human IgG1 [8] = target: T1, human IgG1; assay: fluorescence anisotropy; pH 7.4 PBS
Protocol: as §1

human IgG4 [9] = target: T2, human IgG4; assay: fluorescence anisotropy; pH 7.4 PBS
Protocol: as §1

human IgG2 [10] = target: T3, human IgG2; assay: fluorescence anisotropy; pH 7.4 PBS
Protocol: as §1

human IgG1 [11] = target: T1, human IgG1; assay: fluorescence anisotropy; pH 7.4 PBS, 15% ethylene glycol
Protocol: as §1

[12] = target: T5, human IgG (unfractionated, polyclonal); assay: filterplate; 25 mg human IgG applied per ml resin
T5 construct: also called hIgG; polyclonal human IgG
Protocol: After incubation of the samples, with shaking, at room temperature for one hour, the supernatant liquid from each well, containing unbound IgG, was collected by centrifugation into the cognate well of a collection plate. The assay plate was washed three times with PBST (200 μl/wash) and bound IgG was eluted from the media samples by incubation for 30-60 minutes at room temperature in 100 μl Elution Buffer (100 mM CAPS, pH 11.5). Eluates were collected by centrifugation for analysis. Protein concentrations were determined from A₂₈₀ measurements and plotted as a function of mg human IgG bound per ml resin vs. mg human IgG applied per ml resin.
These were subsequently tested in batch filterplate format for relative static capacity, human IgG subtype and species specificity as previously described. In addition, total dynamic capacities were determined for comparison. […] The static capacity (mg IgG bound per ml resin) was measured at the 2.5 mg/ml target concentration (25 mg human IgG applied per ml resin).

human IgG1 [13] = target: T1, human IgG1; assay: fluorescence anisotropy; pH 5.7, 15% ethylene glycol
Protocol: as §1

human IgG3 = target: T6, human IgG3 (human, UniProt P01860-1 1-377); assay: batch binding, immobilised ligand
T6 construct: Calbiochem; plasma IgG3 in anisotropy studies, myeloma-derived (cat. 400124) in batch/column studies; also called hIgG3
T6 sequence (P01860 other isoform, or with tags, fused parts or gaps): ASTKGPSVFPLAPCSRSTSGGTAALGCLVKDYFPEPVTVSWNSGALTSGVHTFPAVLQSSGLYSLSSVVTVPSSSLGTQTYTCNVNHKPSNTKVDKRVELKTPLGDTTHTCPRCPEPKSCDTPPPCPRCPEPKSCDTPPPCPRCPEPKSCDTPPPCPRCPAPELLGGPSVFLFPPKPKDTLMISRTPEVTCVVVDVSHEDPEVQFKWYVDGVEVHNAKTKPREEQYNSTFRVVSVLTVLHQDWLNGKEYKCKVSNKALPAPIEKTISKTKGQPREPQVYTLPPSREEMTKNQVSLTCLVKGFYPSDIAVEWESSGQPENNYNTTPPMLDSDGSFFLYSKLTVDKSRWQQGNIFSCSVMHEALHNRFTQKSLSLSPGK
Protocol: (§2) IgG targets were diluted into 10 mM phosphate buffer containing 150 mM NaCl and 0.01% Tween 20, pH 7.2 (PBST) or 50 mM Tris buffer containing, 150 mM NaCl and 0.01% Tween-20, pH 7.5 (TBST). Batch (static) binding and elution studies were conducted in a 96-well assay filterplate (Millipore MultiScreen-HV, with 0.45 μm Durapore membrane, product no. MAHVN4510). The target was allowed to incubate with the resin for 1-1.5 hours with shaking at room temperature. Unbound target was collected by centrifugation of samples from the assay plate directly into a low-UV absorbing 96-well collection plate (Costar, product no. 3635 or Greiner, product no. 655801). The unbound target was then quantitated by reading the absorbance at 280 nm (normalized to 1 cm pathlength, 1.4 mg/ml A280 extinction coefficient) of the collection plate on a microplate spectrophotometer (Molecular Devices Corp., SPECTRAmax PLUS) against a buffer blank.
(§3) The percentage bound target was determined by subtracting the mass determined as unbound from the corresponding condition's control values (control non-filtered added directly to the collection plate and/or the negative control). The assay plate was washed (3×) with 200 μl of binding buffer by vacuum filtration followed by addition of 100 μl of various elution conditions (e.g.: 0.1 M sodium bicarbonate buffer, pH 8.5 and/or 0.1 M sodium citrate buffer, pH 4.0). After a 30-60 minute incubation with shaking at room temperature, the eluted target was collected by centrifugation of the assay plate into another collection plate and quantitated in a similar manner. Percent elution of total load was then determined to characterize elution recovery efficiency under various conditions.

human IgG1 [14] = target: T1, human IgG1; assay: batch binding, immobilised ligand
Protocol: as §2, §3

human IgG1 [15] = target: T1, human IgG1; assay: fluorescence anisotropy; pH 5.7, 0.05 M NaCl
Protocol: as §1

human IgG1 [16] = target: T1, human IgG1; assay: fluorescence anisotropy; pH 5.7, 0 M NaCl
Protocol: as §1

T1 sequence (P01857 other isoform, or with tags, fused parts or gaps): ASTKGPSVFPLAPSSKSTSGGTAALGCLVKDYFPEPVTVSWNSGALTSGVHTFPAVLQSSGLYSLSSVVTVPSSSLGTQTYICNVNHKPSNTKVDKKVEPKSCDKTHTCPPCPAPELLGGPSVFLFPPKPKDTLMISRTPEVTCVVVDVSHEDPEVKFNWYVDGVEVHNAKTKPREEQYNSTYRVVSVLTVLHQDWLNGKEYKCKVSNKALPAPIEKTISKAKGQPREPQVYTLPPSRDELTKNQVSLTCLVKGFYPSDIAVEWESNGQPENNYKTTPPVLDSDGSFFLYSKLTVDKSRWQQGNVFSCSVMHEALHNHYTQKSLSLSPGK

B1: DX249 (peptide)
peptide: Ac-GDDHMCVYTTWGELIWCDNHEPGPEGGGK-NH2
modifications: disulfide 6-17 (inferred)
notes: Synthetic disulfide-cyclised peptide
Human IgG1 [1]
  Kd: 0.4 µM
Human IgG4 [2]
  Kd: 1.9 µM
Human IgG2 [3]
  Kd: 1.8 µM
Human IgG1 [4]
  Kd: 0.84 µM
[5]
  Kd: 2.5 µM
Human IgG1 [6]
  Kd: 0.97 µM
Human IgG1 [7]
  Kd: 0.84 µM
Human IgG1 [8]
  Kd: 1.4 µM
Human IgG4 [9]
  Kd: 1.9 µM
Human IgG2 [10]
  Kd: 1.1 µM
Human IgG1 [11]
  Kd: 3.6 µM
[12]
  Static Cap.: 24 mg/mL
Human IgG1 [13]
  Kd: 0.08 µM
Human IgG3
  Bound (% of Total Load): 0%
  bdg % (of Total Load): 3%
Human IgG1 [14]
  Bound (% of Total Load): 88%
  bdg % (of Total Load): 91%
Human IgG1 [15]
  Kd: 0.3 µM
Human IgG1 [16]
  Kd: 0.074 µM
